Assay results: the DeepSol protein solubility set

Test: soluble on expression in E. coli; label from the status in PepcDB or PDB records

| Sequence | soluble on expression in E. coli |
| --- | --- |
| MNKTWWKEAVAYQIYPRSFMDSNGDGIGDLQGIIAKLDYLKDLGIDVIWICPMYKSPNDDNGYDISDYQDIMDEFGTMEDFDALLDEVHKRDMKLIIDLVINHTSDEHPWFIESRSSKDNPKRDWYIWHDGKDGAEPNNWESIFNGSAWEYDEVTGQYYLHLFSRKQPDLNWENKEVREVLYDTVNWWLDKGIDGFRVDAISHIKKEDGFKDMPNPKGLKYVPSFDKHMNVDGIQPLLEELKENTFSKYDIMTVGEANGVKIEDAELWVGEEQGKFNMVFQFEHLSLWDAEKKKDLDVVGLKKVLTKWQKGLENKGWNALYIENHDKPRIVSTWGDDKQYWRESATALGAMYFFMHGTPFIYQGQEIGMTNVQFPNIEDYDDVAIKNLYREKIAEGVSHQDMMEIIWASCRDNSRTPMHWDDEINAGFTTGTPWFGMNQNYKEINVAKQKNEENSIFNFYKKMIALKKEHDVLNYGTYDLLLEDDPQIYAYTRTLNDEKIVVISNISKEEAVYNEDLFALERKRLLLNNYEVAEHEQLTTITLKPYETRVYRIS | not soluble |
| EVRALQLEYDQSMEAYQKLVEISPDAIYIQSMEGEILFANPSGIKLLGATDLNELVGLSVMNFIHPDYLNVVENRIGDAENLSGNISEQKAVTLKGEILDIEVVSVAFSYNGKAAEQVIVRNVT | not soluble |
| MIVQKELVAIYDYEVPVPEDPFSFRLEIHKCSELFTGSVYRLERFRLRPTFHQRDREDADPLINDALIYIRDECIDERKLRGESPETVIAIFNRELQNIFNQEIE | soluble |
| MSLASFPHRNLTWNDINFVHTTDTHGWYSGHINQPLYHANWGDFISFTTHMRRIAHSRNQDLLLIDSGDRHDGNGLSDITSPNGLKSTPIFIKQDYDLLTIGNHELYLWENSKQEYETVVNHFQDKYVCSNVDIRLDNGLFVPLGLKYKYFTTPIRGIRVMAFGFLFDFKRFNSGTRVTPMAETIHEPWFQEALKHEVDLIIIVGHTPISHNWGEFYQVHQYLRQFFPDTIIQYFGGHSHIRDFTVFDSLSTGLQSGRYCETVGWTSVNLDKADLNLPVRQRFSRSYIDEGHHHHHH | not soluble |
| MSLRTYENVVILTDLTAGTTYYYKIVSTNSTVDHFLSPRVPGDETPFSINAVIDLGVYGEDGYTIKGDKSKKDTIPTINPALNHTTIGRLASTVDDYEFVIHPGDFAYADDWFLSLDNLLDGENAYQAILENFYEQLAPISGRKPYMASPGNHEAACQEIPFTTGLCPDGQKNFTDFMHRFGRTMPSSFTSVSTNDSAKVFANQARELAQPPFWYSFEYGMAHIVMINTETDFEDAPSGKGGSAHLNGGPFGAKNQQLEFLEADLASVDRDVTPWVIVAGHRPWYTAGSACTPCQEAFEDLLYTYGVDLGVFGHVHNAQRFLPVYNSVADPNGMQDPKAPMYIVAGGAGNIEGLSSITKQLDFTEFANDEDYTYSTIRFLDRNHLQVDFINSVSGEVLDTSTLYKSHEARFVREGHHHHHH | not soluble |
| TRVYDESGKEVGKLFGQKGTFVELDNISPYIQDAVISTEDRGFYQHKGYSIKGIARAVVGKLTFGKIGGGGGGSTITQQLAKNAYLTQEQTLDRKARELFLAIEIEKKYSKKDILAMYLNNSYFGNGVWGVQDAARKYFGVDASQVTVGEAATLAGMLKGPGIYNPIDYI | not soluble |
| MGSDKIHHHHHHMDVSIDSGKKKIIPFIQSGDYFFRRGVIAFRKNHLSRAVKLLERAVKLTEQEPVFHIQLAAVLSELGHYERSNDILESVVQNLDPGHSECHFFMANNYAYLGLFEKAEHCAIAYLSDQPDGEFAKDAHDLLDLLRFEKEEEGDEWENELTPTDQFLLEHEKACQLLEEGHLQEAIVLLEKLMDEEPSYWTAYNQYAQALFRLGNVEKAFEVCEHILEEDQGNLFALCNMALFYKKQGQQQQAESLIQALSAVHPMDRAHRFKVAQVLCAVGAYEQAYDRLKELEWTSISSDPEWHFCIGVAAYHLGQEEIALRYWKKAATLGVQQAADYYAMSIVDILQKEDVTYEGWHVKQKSRQNS | not soluble |
| MSLSAHVEYFKPPAESELPDNAYGKLVREGYALFVDTKRLAPQFVGNGLNCSNCHLDQGRLANSAPLWGAYPMYPAYRKKNDKVNTFAERLQGCFQFSMNGGKPPAADSPQITALSVYAYWLASKAPLGVELPGRGYPDVAQPAKGYDLKQGAAVYQAQCAVCHGDNGQGQKAGADYVMPPLWGKDSYNWGAGMHRINTAASFIKHNMPLGKGGSLSDQQAWDVAAFVNSHERPQDPRLVEGSIEKTRVKFHANDGVNLYGQTVEGVLIGQGIREGHHHHHH | not soluble |
| MGSDKIHHHHHHMSALYQALPAVDKLLKTPQGEQLVAEFGHSATVNMCRDLLQQAREHIKRHENLPHFLQNTDATFQHLKEQLLLQQQVNIKTVHNLTGTVLHTNLGRALWSPAAQQAALDAMQGNVALEYDLSAGERSHRDNYISALMQQLTGAEAACVVNNNAAAVLLMLATFAQGKEVIISRGELIEIGGAFRIPDIMAQAGCKLVEVGTTNRTHLKDYRNAINENTAFLMKVHSSNYQICGFTHSVDEQELADLGKEFGIPVITDLGSGALMDLKQFGLPEEPTVQEKLQHGVDLISFSGDKLLGGPQAGIIVGKKALIQQLQAHPLKRVLRCDKVTLAGLEATFRLYLQPEKITEKLTALLLLTQPMERLQAQAEQLKVRLENRLNTNYVIAIEPSEAQIGSGSQPLARIPSVAVTIAPASEKTPAKTTALFARLLALPQPVIGRIERDKIWLDLHSLASLDRLLNSLETL | not soluble |
| EQISISSPRKRIYHNILETIGGTPLVELHGVTEHPRIKKGTRILVKLEYFNPMSSVKDRVGFNIVYQAIKDGRLKPGMEIIESTSGNTGIALCQAGAVFGYRVNIAMPSTMSVERQMIMKAFGAELILTEGKKGMPGAIEEVNKMIKENPGKYFVANQFGNPDNTAAHHYTANEIWEDTDGEVDIVVSAVGTSGTVIGVAEKLKEKKKGIKIIAVEPEESAVLEGKAKGPHGIQGIGAGFIPDIYKKEFVDEIIPIKTQDAWKMARAVVKYDGIMCGMSSGAAILAGLKEAEKPENEGKTIVIIVPSCGERYLSTDLYKIKDEGTKIQILDSLLNEHH | soluble |
| MGSDKIHHHHHHMINPQWLHTFAVLVEKGNFTRTAEAIGITQAAVSQHISRLEEEYGTLFLRRPRQLEITPIGENLLTYVKDVECAQKRLQQKLIHDDAEVGDISLITPGSIGLTLFPLLIELQQAFPALNIRHRFAPDSEIVASVLANEHEIGMVTLKPSDPRIHSTHFTEEPLELVVPACHKQNEWVDLQRLGFISHPDGEAMATRLLSRKYPSNPGIQDIPCKGFTNQISLILEPVAKGLGFTVIPQYARKAFERQQDIYVVECGSQVVDTIWLIHRAEWPLSRRAQKAITFLKGKI | not soluble |
| MADADLVMTGTVLTVDDARPTAEAIAVADGRVIAVGDRSEVAGLVGANTRVIDLGAGCVMPGFVEAHGHPLLEAVVLSDRFVDIRPVTMRDADDVVAAIRGEVARRGPAGAYLVGWDPLLQSGLGEPTLTWLDSLAPNGPLVIIHNSGHKAYFNSHAAWLNGLTRDTADPKGAKYGRDGNGELDGTAEEIGAILPLLAGVADPSNFGAMLRAECARLNRAGLTTCSEMAFDPGYRPMVEAVRAELTVRLCTYEISNARMCTDATPGQGDDMLRQVGIKIWVDGSPWVGNIDLTFPYLDTPATRAIGVPPGSRGCANYTREQLAEIVGAYFPRGWQIACHVHGDGGVDTILDVYEEALRRNPRDDHRLRLEHVGAIRPDQLRRAAELGVTCSIFVDQIHYWGDVIVDDLFGAQRGSRWMPAGSAVAAGMRISLHNDPPVTPEEPLRNISVAATRVAPSGRVLAPEERLTVEQAIRAQTIDAAWQLFAEDAIGSLQVGKYADMVVLSADPRTVPPEQIADLAVRATFLAGRQVYRRLEHHHHHH | not soluble |
| MGSDKIHHHHHHRTKDQYYELRDFALGTSVRIVVSSQKINPRTIAEAILEDMKRITYKFSFTDERSVVKKINDHPNEWVEVDEETYSLIKAACAFAELTDGAFDPTVGRLLELWGFTGNYENLRVPSREEIEEALKHTGYKNVLFDDKNMRVMVKNGVKIDLGGIAKGYALDRARQIALSFDENATGFVEAGGDVRIIGPKFGKYPWVIGVKDPRGDDVIDYIYLKSGAVATSGDYERYFVVDGVRYHHILDPSTGYPARGVWSVTIIAEDATTADALSTAGFVMAGKDWRKVVLDFPNMGAHLLIVLEGGAIERSETFKLFERE | soluble |
